Results on 10 molecules are retold here after patent publication US20190309034A1 (Boehringer Ingelheim, published 2019).

Common to all, as to experiment: cell-based or functional assay
Test [1] has as its target Recombinant soluble trimeric human BAFF (furin-cleaved human BAFF 134-285) (human, UniProt Q9Y275 134-285).
For test [2], the target named is Recombinant soluble 60-mer human BAFF (His-HuBAFF 134-285) (human, UniProt Q9Y275 134-285).
The target in test [3] is Human membrane-bound BAFF (mbBAFF) (human, UniProt Q9Y275 1-285).

B1: 1002E8A6 (antibody, V domains shown)
VH: EVQLQQSGPELVKPGASVKMSCKASGYTITSYVMHWVKQKPGQGLEWIGYINPNNDGTKYNEKFKGKATLTSDKSSNTAYMELSSLTSEDSAVYYCARGDYSNYFYWYFDVWGAGTTVTVSS
VL: DIKMTQSPSSMYASLGERVTITCKASQDINSYLTWFQQKPGKSPETLIYRANRLVSGVPSRFSGSGSGQDYSLTISSLEYEDMGIYSCLQYDEFPYTFGGGTKLEIK
Take B1: in test [1], the “Soluble trimeric huBAFF (50 pM) Neutralization IC50” value was found to be 107 pM and the “Soluble trimeric huBAFF (50 pM) Neutralization IC90” value worked out at 824 pM. In addition, in test [2], the “Soluble 60-mer huBAFF (4 pM) Neutralization IC50” value was 29 pM and the “Soluble 60-mer huBAFF (4 pM) Neutralization IC90” value worked out at 79 pM. For the same molecule, in test [3], the “Potent mbBAFF Neutralization IC50” value is 0.141 nM and the “Potent mbBAFF Neutralization IC90” value came to 2.09 nM.

B2: 1070A6B7 (antibody, V domains shown)
VH: QVPLQQPGAEMVRPGASMRLSCKASGYTFPGYWMHWVKQRPRQGLEWIAKIDPSDSETHYNQNFKDKATLTVDKYSNTVYMQLNSLTSEDSAVYYCANEGWDSLTKVWFGWWGQGTLVTVSA
VL: DVVMTQTPLSLPVSLGDQASISCRCSQSLVHSNGNTYLHWYLQKPGQSPKLLIYKVSDRFSGVPDRFSGSGSGTDFTLRISRVEADDLGVYFCSQSTHVPLTFGAGTKLELK
For the molecule B2, in test [1], the “Soluble trimeric huBAFF (50 pM) Neutralization IC50” value is 43 pM and the “Soluble trimeric huBAFF (50 pM) Neutralization IC90” value turned out to be 677 pM. Also, in test [2], the “Soluble 60-mer huBAFF (4 pM) Neutralization IC50” value worked out at 20 pM and the “Soluble 60-mer huBAFF (4 pM) Neutralization IC90” value is 56 pM. Further, in test [3], the “Potent mbBAFF Neutralization IC50” value is 0.147 nM and the “Potent mbBAFF Neutralization IC90” value turned out to be 1.06 nM.

B3: 1094C4E6 (antibody, V domains shown)
VH: EVQLQQSGAELVRPGASVKLSCTASGFNIKDDYMHWVKQTPEQGLEWIGRIDPAYGNGKYVPKFQDKATITADTSSNTAYLQLSSLTSEDTAVYYCARRYYAVSSVDYALDYWGQGTSVTVSS
VL: DIVMTQSHKFMSTSVGDRVTITCKASQDVATAVAWYQQKPGQSPKLLIYWASTRHTGVPDRFTGSGSGTDFTLTISNVQSEDLANYFCQQYSNYPYTFGGGTTLEIK
As to B3, in test [1], the “Soluble trimeric huBAFF (50 pM) Neutralization IC50” value is 384 pM and the “Soluble trimeric huBAFF (50 pM) Neutralization IC90” value was determined as 1100 pM. Further, in test [2], the “Soluble 60-mer huBAFF (4 pM) Neutralization IC50” value came to 4050 pM and the “Soluble 60-mer huBAFF (4 pM) Neutralization IC90” value came to 20900 pM. For the same molecule, in test [3], the “Potent mbBAFF Neutralization IC50” value turned out to be 2.56 nM and the “Potent mbBAFF Neutralization IC90” value came to 175 nM.

B4: 320F9C5 (antibody, V domains shown)
VH: QVTLKESGPGILQSSQTLSLTCSFSGFSLRTFGMGVGWIRQPSGKGLEWLAHIWWNDDKSSHPALKSRLTISKDTSKNQVFLKIANVDTAETATYYCVRIGPSITTVAEGFAYWGQGTLVTVSA
VL: DIVMTQSQKFMSTTVGDRVSITCKASQNVGSVVAWYQQRPGQSPTLLIYSASNRYTGVPDRFTGSGSGTDFTLTISNMQSEDLADYFCQQYSSYPLTFGAGTKLELK
As to B4, in test [1], the “Soluble trimeric huBAFF (50 pM) Neutralization IC50” value was 110 pM and the “Soluble trimeric huBAFF (50 pM) Neutralization IC90” value turned out to be 3110 pM. Further, in test [2], the “Soluble 60-mer huBAFF (4 pM) Neutralization IC50” value stood at 10 pM and the “Soluble 60-mer huBAFF (4 pM) Neutralization IC90” value was determined as 24 pM.

B5: 363D4A10 (antibody, V domains shown)
VH: QVTLKESGPGILQSSQTLSLTCSFSGFSLKTFGMGVGWIRQPSGKGLEWLAHIWWNDDKFYHPALKSRLTISKDTSKNQVFLKIANVDTAETATYYCVRIGPSITTVAEGFAYWGQGTLVTVSA
VL: DIVMTQSQKFMSTTVGDRVTITCKASQNVGSAVVWYQQKPGQSPILLIFSASNRYTGVPDRITGSGSGAEFTLTISSVQSEDLAEYFCQQYSSYPLTFGAGTKLELK
With B5, in test [1], the “Soluble trimeric huBAFF (50 pM) Neutralization IC50” value was 21 pM and the “Soluble trimeric huBAFF (50 pM) Neutralization IC90” value stood at 473 pM. Further, in test [2], the “Soluble 60-mer huBAFF (4 pM) Neutralization IC50” value stood at 9 pM and the “Soluble 60-mer huBAFF (4 pM) Neutralization IC90” value is 23 pM.

B6: 332C1B12 (antibody, V domains shown)
VH: QVQLQQPGAELVKPGASVKLSCKASGYTFTNDNYWMNWMKQRPGRGLEWIGRIRPSDSETHYNQKFTNKATLTVDKSSSTAYIQLSSLTSVDSAVYYCARSWEDLLLRSMEDYFDYWGQGTTLTVSS
VL: DIVLTQSPASLPVSLGQRATISCRASKGVSTSSYTFIHWYQQKPGQPPKLLIKYASNLESGVPARFSGSGSGTDFTLNIHPVEEEDVATYYCQHSREFPRTFGGGTKLEIK
B6: in test [1], the “Soluble trimeric huBAFF (50 pM) Neutralization IC50” value was determined as 99 pM and the “Soluble trimeric huBAFF (50 pM) Neutralization IC90” value worked out at 457 pM. In test [2], the “Soluble 60-mer huBAFF (4 pM) Neutralization IC50” value worked out at 12 pM and the “Soluble 60-mer huBAFF (4 pM) Neutralization IC90” value stood at 40 pM.

B7: 323E9D1 (antibody, V domains shown)
VH: QVTLKESGPGILQPSQTLSLTCSFSGFSMRTFGMGVGWIRQPSGKGLEWLAHIWWNDEKYYNPDLKSRLTVSKDSSKNQVFLTIANVDTSDTAPYYCTRVGPSISTIAEGFPYWGQGTLVTVSA
VL: DIVMTQSQKFVSTRVGDRVSITCKASQNVGAAVVWYQQKSGQPPKLLIRSASNRYIGVPDRFTGSGSGTDFTLTVSDVQSGDLADYFCQQYSNYPLTFGAGTKLELT
Regarding B7, in test [1], the “Soluble trimeric huBAFF (50 pM) Neutralization IC50” value was 148 pM and the “Soluble trimeric huBAFF (50 pM) Neutralization IC90” value was determined as 312 pM. In addition, in test [2], the “Soluble 60-mer huBAFF (4 pM) Neutralization IC50” value is 6 pM and the “Soluble 60-mer huBAFF (4 pM) Neutralization IC90” value came to 23 pM.

B8: 348A6C1 (antibody, V domains shown)
VH: QVTLRESGPGILQPSQTLSLTCSFSGFSLRTFGMGVGWIRQPSGKGLEWLAHIWWNDEKYYNPALKSRLTVSKDSSENQVFLKIANVDTTDTAPYYCARLGPSITTVAEGFPYWGQGTLVTVSA
VL: DIVMTQSQKFMSTTVGDRVSITCKASQNVGAAVAWYQQKPGQPPKLLIRSASNRYIGVPDRFTGSGSGTDFTLTVSDVQSVDLADYFCQQYSNYPLTFGAGTKLELTR
Turning to B8, in test [1], the “Soluble trimeric huBAFF (50 pM) Neutralization IC50” value is 110 pM and the “Soluble trimeric huBAFF (50 pM) Neutralization IC90” value turned out to be 329 pM. Further, in test [2], the “Soluble 60-mer huBAFF (4 pM) Neutralization IC50” value came out at 9 pM and the “Soluble 60-mer huBAFF (4 pM) Neutralization IC90” value is 29 pM.

B9: 352G11A10 (antibody, V domains shown)
VH: QVQLQQSGPELVKPGGSVRISCKASGYSLISYYIHWVKQRPGQGLEWIGLTFPGSGNSKFIEKFKGKATLTADTSSNTAYIQLSSLTSEDSAVYYCTRGDFGNYLAYWYFDVWGTGTTVTVSS
VL: DIKMTQSPSSIYASLGERVTITCKASQDIHSYLSWFQQKPGKSPKTLMYRTNRLVDGVPSRFSGSGSGQDYSLTIRSLEYEDMGNYYCLQYDEFPYTFGGGAKLEVK
Consider B9, for which, in test [1], the “Soluble trimeric huBAFF (50 pM) Neutralization IC50” value is 99 pM and the “Soluble trimeric huBAFF (50 pM) Neutralization IC90” value turned out to be 444 pM. In test [2], the “Soluble 60-mer huBAFF (4 pM) Neutralization IC50” value was determined as 21 pM and the “Soluble 60-mer huBAFF (4 pM) Neutralization IC90” value turned out to be 90 pM.

B10: 344B9D9 (antibody, V domains shown)
VH: EFQLQQSGPELGEPGASVKISCKASGFSFSDYNINWVKQSNGKSLEWIGKVHPKDGTATYNQKFQDKATLTLDQSSSTAYMQLSSLTSEDSAVYYCLPLYYDSLTKILFAYWGQGTLVTVSA
VL: DIQMTQSPASLSASVGETVTITCRASGNIHNYLAWYQQKQGKSPQLLVYSAITLADGVPSRFSGSGSETQFSLKINSLQPEDFGIYYCQHFWNTPYTFGGGTKLEIK
B10: in test [1], the “Soluble trimeric huBAFF (50 pM) Neutralization IC50” value was found to be 102 pM and the “Soluble trimeric huBAFF (50 pM) Neutralization IC90” value came to 352 pM. In test [2], the “Soluble 60-mer huBAFF (4 pM) Neutralization IC50” value was found to be 11 pM and the “Soluble 60-mer huBAFF (4 pM) Neutralization IC90” value is 32 pM.
